The text below walks through data of the supplement of paper PMC12042874.

± gives the uncertainty stated by the source.

A short description of the data set: amyloid nucleation score (Sup35N fusion, yeast selection) (log enrichment); library NNK3; higher = more nucleation; inactive = no reads after selection. The method in brief:
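Sup35N was fused to peptides of 20 random codons and expressed in psi-negative yeast, which were induced with 100 μM copper sulfate for 24 hours and then grown on medium lacking adenine and uracil for 7 days at 30°C. Plasmid inserts from input and output were sequenced on Illumina. The nucleation score is the DiMSum log enrichment of output over input reads, centred on the mode score of non-aggregating sequences. Sequences with under 100 input reads were left out, and random libraries had three technical output replicates.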
VRPFPFTWSSSNKEV: the amyloid nucleation score entry is “inactive”.
The entry for LHPLYRFSANSSKDLFTSRL is “inactive”; for DMIKCGLSPDRVFIWYWPNK it is “inactive”; for PVLEYKVL it is “inactive”.
YGSMMHWKSLCLSSIC: the amyloid nucleation score entry was “inactive”.
In the case of ISLFFRICY it was 0.397 ± 0.27; in that of NEIMVTLHNV, “inactive”.
In the case of ISTSLMDRRTKMLRQM it was “inactive”; in that of WAQLRSTWTSSKAYWLTA, “inactive”; in that of FHIRHEGMLFQWGHEALAVK, “inactive”.
In the case of IYLDFNASWLACNKLICLRN it was 1.01 ± 0.13; in that of QRNSCLDFMK, “inactive”.
For the substance DPVMTACNALMTSVS, the amyloid nucleation score was -0.319 ± 1.3.
In the case of RGRIVLNQRLNCDDEDGISE it was “inactive”.
The entry for DQGDRSFCSNLRLGYGVRAW is “inactive”; for SYFDIFGTTDQVSVKSRMCT it is “inactive”; for GSALSSLFQCLLFPLSVSVL it is 0.49 ± 0.21.
Turning to LPICGAD, the amyloid nucleation score result is “inactive”.
As for CSASAYDSVIIDRIIYLIRG, the amyloid nucleation score entry was “inactive”.
Turning to TDTRNINV, the amyloid nucleation score result is “inactive”.
The entry for WSKHVCLFENSKSPHFSEDS is “inactive”; for GNWQCFTEGRTPCYFCCITT it is “inactive”; for ITRDDTCSVYRLVK it is “inactive”.
The substance SMCCCNILDLNRN returned an amyloid nucleation score of 3.11 ± 0.057.
Regarding AALSSTW, the amyloid nucleation score result is “inactive”.
In the case of RLDGSMSGCFSTFWNWNIVR it was “inactive”; in that of RLVRSMAFYNHVIYL, 0.012 ± 0.28.
In the case of KISMSRVVFDNSSTGTIEGQ it was “inactive”; in that of SRGCRTTYRQEWECIQCLKW, “inactive”.
For TYYNHIRLVYLIGAKRWEEL, the amyloid nucleation score result is “inactive”.
On to YGRLLVGFLTITV, for which the amyloid nucleation score entry was “inactive”.
Consider VDKLGSYPMPLVLGVVNTYQ, for which the amyloid nucleation score result is “inactive”.
On to FVHQRYRAQIIRLLPTSWGC, for which the amyloid nucleation score result is “inactive”.
In the case of NINRFLDLSSWIGYQNGYKA, the amyloid nucleation score entry is “inactive”.
In the case of LDNDSWTRGLRGYLTYLRER it was “inactive”.
Substance ASLPVLPSNPDKSEGAKGHE had an amyloid nucleation score of -0.681 ± 1.2.
The entry for GVNDRGNKRYAPYKTWLRLE is “inactive”.
Turning to FRMASS, the amyloid nucleation score entry is “inactive”.
In the case of TRIFVCVFVCTTPTMHAPIW it was 0.921 ± 0.23; in that of MTPGFCLPK, “inactive”; in that of LVNLAELDFVECCLENKMQW, “inactive”.
In the case of CFSTPCLCQSNELANIGSPT it was “inactive”.
Regarding PNRVGAVPGG, the amyloid nucleation score result was “inactive”.
The entry for LRGILSIVLVCGENYIKHCG is “inactive”; for MDKYTRTRPQTRGRAVSCYY it is “inactive”.
With CICWQHDKVVAYSLSDAGMA, the amyloid nucleation score result was “inactive”.
The entry for KSESEGFNNSIRPWCMFCVS is “inactive”; for SNFLLSSLIHLVPMMSL it is “inactive”; for CKNQHFLSLIGFLYHIDPKR it is 0.709 ± 0.17.
For the substance FEFKSIGNRLGSYTQASWFA, the amyloid nucleation score result was “inactive”.
The substance QLFTVTLQLTLLSKIDTANL yielded an amyloid nucleation score of 1.03 ± 0.13.
In the case of LNVTLIMNRRLFMGTFHLW, the amyloid nucleation score entry is “inactive”.
On to SFDSLVISDTVSRDRCLQII, for which the amyloid nucleation score result is “inactive”.
